Starred links: 1 amine or outer side, 2 acyl side, 3 side chain; linkers in the order of their positions; H or OH if unused. Positions of bridges follow the written chain, without caps; N, C: chain ends. Non-standard residues stand in square brackets, D forms with d. Primed or numbered codes have the meaning given here. PyrS2″ = (S)-3-amino-1-((pent-4-en-1-yloxy)carbonyl)pyrrolidine-3-carboxylic acid (stapling residue), C=CCCCOC(=O)N1CC[C@@](N[*:1])(C(=O)[*:2])C1; PyrS2 = (S)-3-amino-1-((pent-4-en-1-yloxy)carbonyl)pyrrolidine-3-carboxylic acid, C=CCCCOC(=O)N1CC[C@@](N[*:1])(C(=O)[*:2])C1; B5(27) = 2-amino-2-(pent-4-en-1-yl)hept-6-enoic acid (two alkene side-chain arms), C=CCCCC(CCCC=C)(N[*:1])C(=O)[*:2]; MePpzAsn = (S)-2-amino-4-(4-methylpiperazin-1-yl)-4-oxobutanoic acid, CN1CCN(C(=O)C[C@H](N[*:1])C(=O)[*:2])CC1; F2PipNva = (S)-2-amino-5-(4,4-difluoropiperidin-1-yl)pentanoic acid, O=C([C@H](CCCN1CCC(F)(F)CC1)N[*:1])[*:2]; MorphAsn = (S)-2-amino-4-morpholino-4-oxobutanoic acid, O=C(C[C@H](N[*:1])C(=O)[*:2])N1CCOCC1; B5(3) = 2,2-bis(4-pentenyl)glycine (stitching residue), C=CCCCC(CCCC=C)(N[*:1])C(=O)[*:2]; B5 = 2-amino-2-(pent-4-en-1-yl)hept-6-enoic acid, C=CCCCC(CCCC=C)(N[*:1])C(=O)[*:2]; Phe(4-(3-Py)) = N[C@@H](Cc1ccc(-c2cccnc2)cc1)C(=O)O; Nva(5-morpholino) = N[C@@H](CCCN1CCOCC1)C(=O)O; Ala(4-thiazolyl) = N[C@@H](Cc1cscn1)C(=O)O; Phe(2-Cl) = N[C@@H](Cc1ccccc1Cl)C(=O)O; Phe(2-OMe) = COc1ccccc1C[C@H](N)C(=O)O; 1Nal = N[C@@H](Cc1cccc2ccccc12)C(=O)O; 2Nal = N[C@@H](Cc1ccc2ccccc2c1)C(=O)O; Phe(2-F) = N[C@@H](Cc1ccccc1F)C(=O)O; Bta = N[C@@H](Cc1csc2ccccc12)C(=O)O; αAllylPro = C=CC[C@@]1(C(=O)O)CCCN1; tBuAla = CC(C)(C)C[C@H](N)C(=O)O; 3Thi = N[C@@H](Cc1ccsc1)C(=O)O; Cha = N[C@@H](CC1CCCCC1)C(=O)O; S8 = C=CCCCCCC[C@](C)(N)C(=O)O; hSer = N[C@@H](CCO)C(=O)O
T1: B-cat-Halo (beta-catenin HaloTag fusion construct expressed in HEK293 cells) (UniProt P35222 1-781)
T1 sequence (looked up): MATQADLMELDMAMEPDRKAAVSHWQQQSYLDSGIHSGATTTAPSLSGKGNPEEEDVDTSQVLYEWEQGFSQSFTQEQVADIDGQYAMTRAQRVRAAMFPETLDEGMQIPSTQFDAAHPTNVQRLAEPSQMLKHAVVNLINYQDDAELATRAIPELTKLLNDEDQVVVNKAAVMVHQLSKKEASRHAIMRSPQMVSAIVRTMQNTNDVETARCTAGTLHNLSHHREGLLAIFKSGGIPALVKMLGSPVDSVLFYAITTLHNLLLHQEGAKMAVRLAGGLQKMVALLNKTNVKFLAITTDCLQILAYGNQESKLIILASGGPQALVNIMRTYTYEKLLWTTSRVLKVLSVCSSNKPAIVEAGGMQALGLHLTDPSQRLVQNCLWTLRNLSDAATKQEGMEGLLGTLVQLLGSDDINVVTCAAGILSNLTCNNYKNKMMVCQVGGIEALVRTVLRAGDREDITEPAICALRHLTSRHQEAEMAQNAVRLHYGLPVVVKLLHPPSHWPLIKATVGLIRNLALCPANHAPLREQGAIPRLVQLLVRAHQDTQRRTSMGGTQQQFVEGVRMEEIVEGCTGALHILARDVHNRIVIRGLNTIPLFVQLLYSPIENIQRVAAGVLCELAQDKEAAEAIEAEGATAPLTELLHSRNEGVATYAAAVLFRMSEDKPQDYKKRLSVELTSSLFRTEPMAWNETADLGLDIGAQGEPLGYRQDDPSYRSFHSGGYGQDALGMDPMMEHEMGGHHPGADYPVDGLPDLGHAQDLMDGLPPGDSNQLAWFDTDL

T2: B-cat-Halo (beta-catenin HaloTag construct expressed in HEK293 cells) (UniProt P35222 1-781)
T2 sequence (looked up): T1 sequence (looked up)

T3: B-cat-Halo (beta-catenin HaloTag fusion expressed in HEK293 cells) (UniProt P35222 1-781, HaloTag labelled with HaloTag NanoBRET 618 Ligand)
T3 sequence (looked up): T1 sequence (looked up)

B1: I-1095 (peptide)
peptide: Ac-[αAllylPro]D[tBuAla][B5(3)]DDAAFL[S8][Phe(2-Cl)][Bta]Q-NH2
modifications: staple 1-4, 4-11
B2: I-1103 (peptide)
peptide: Ac-[αAllylPro]D[tBuAla][B5(3)]DDAAFS[PyrS2″][Phe(2-OMe)][Bta]S-NH2
modifications: staple 1-4, 4-11
B3: I-1099 (peptide)
peptide: Ac-[αAllylPro]D[tBuAla][B5(3)]DDAAFS[PyrS2″]F[Bta]S-NH2
modifications: staple 1-4, 4-11
B4: I-1108 (peptide)
peptide: Ac-[αAllylPro]D[1Nal][B5(3)]DDAAFS[PyrS2″][Phe(2-Cl)][Bta]Q-NH2
modifications: staple 1-4, 4-11
B5: I-1111 (peptide)
peptide: Ac-[αAllylPro]D[2Nal][B5(3)]DDAAFL[PyrS2″][2C1F][Bta]Q-NH2
modifications: staple 1-4, 4-11
B6: I-1101 (peptide)
peptide: Ac-[αAllylPro]D[tBuAla][B5(3)]DDAAFS[PyrS2″][Phe(2-F)][Bta]S-NH2
modifications: staple 1-4, 4-11
B7: I-1106 (peptide)
peptide: Ac-[αAllylPro]D[tBuAla][B5(3)]DDAAFS[PyrS2″][Cha][Bta]S-NH2
modifications: staple 1-4, 4-11
B8: I-1097 (peptide)
peptide: Ac-[αAllylPro]D[tBuAla][B5(3)]DDAAFL[S8][Phe(2-Cl)][Bta][dT]-NH2
modifications: staple 1-4, 4-11
B9: I-1102 (peptide)
peptide: Ac-[αAllylPro]D[Cha][B5(3)]DDAAFS[PyrS2″][Phe(2-F)][Bta]S-NH2
modifications: staple 1-4, 4-11
B10: I-1107 (peptide)
peptide: Ac-[αAllylPro]D[Cha][B5(3)]DDAAF[Cha][PyrS2″][Phe(2-Cl)][Bta]Q-NH2
modifications: staple 1-4, 4-11
B11: I-1105 (peptide)
peptide: Ac-[αAllylPro]D[tBuAla][B5(3)]DDAA[Cha]S[PyrS2″]F[Bta]S-NH2
modifications: staple 1-4, 4-11
B12: I-1114 (peptide)
peptide: Ac-[αAllylPro]D[1Nal][B5(3)]DDAAFT[PyrS2″][Phe(2-Cl)][Bta]S-NH2
modifications: staple 1-4, 4-11
B13: I-1104 (peptide)
peptide: Ac-[αAllylPro]D[Cha][B5(3)]DDAAFS[PyrS2″][Phe(2-OMe)][Bta]S-NH2
modifications: staple 1-4, 4-11
B14: I-1110 (peptide)
peptide: Ac-[αAllylPro]D[1Nal][B5(3)]DDAAFL[PyrS2″][Phe(2-Cl)][Bta]Q-NH2
modifications: staple 1-4, 4-11
B15: I-1096 (peptide)
peptide: Ac-[αAllylPro]D[tBuAla][B5(3)]DEAAFL[S8][Phe(2-Cl)][Bta]Q-NH2
modifications: staple 1-4, 4-11
B16: I-1109 (peptide)
peptide: Ac-[αAllylPro]D[2Nal][B5(3)]DDAAFS[PyrS2″][Phe(2-Cl)][Bta]Q-NH2
modifications: staple 1-4, 4-11
B17: I-1100 (peptide)
peptide: Ac-[αAllylPro]D[Cha][B5(3)]DDAAFS[PyrS2″]F[Bta]S-NH2
modifications: staple 1-4, 4-11
B18: I-816 (peptide)
peptide: Ac-[αAllylPro]D[tBuAla][B5]DDAAFN[PyrS2″][3Thi][Bta]N-NH2
modifications: staple 1-4, 4-11
B19: I-812 (peptide)
peptide: Ac-[αAllylPro]D[tBuAla][B5(3)]DDAA[Ala(4-thiazolyl)]N[PyrS2″][3Thi][Bta]Q-NH2
modifications: staple 1-4, 4-11
B20: I-813 (peptide)
peptide: Ac-[αAllylPro]D[tBuAla][B5]DDAAFN[PyrS2″][3Thi][Bta][dH]-NH2
modifications: staple 1-4, 4-11
B21: I-1499 (peptide)
peptide: Ac-[αAllylPro]D[tBuAla][B5(27)]DDAAFL[PyrS2][3Thi][Bta][hSer]-NH2
modifications: staple 1-4, 4-11
B22: I-1486 (peptide)
peptide: Ac-[αAllylPro]D[tBuAla][B5(3)]DDAAF[F2PipNva][PyrS2″][3Thi][Bta]Q-NH2
modifications: staple 1-4, 4-11
B23: I-1484 (peptide)
peptide: Ac-[αAllylPro]D[tBuAla][B5(3)]DD[MePpzAsn]AFL[PyrS2″][3Thi][Bta]Q-NH2
modifications: staple 1-4, 4-11
B24: I-1492 (peptide)
peptide: Ac-[αAllylPro]D[tBuAla][B5(3)]DDAAFL[PyrS2″][3Thi][Bta]N-NH2
modifications: staple 1-4, 4-11
B25: I-1502 (peptide)
peptide: Ac-[αAllylPro]D[tBuAla][B5(27)]DDA[F2PipNva]FL[PyrS2][3Thi][Bta]Q-NH2
modifications: staple 1-4, 4-11
B26: I-1487 (peptide)
peptide: Ac-[αAllylPro]D[tBuAla][B5(3)]DDAAF[MorphAsn][PyrS2″][3Thi][Bta]Q-NH2
modifications: staple 1-4, 4-11
B27: I-1501 (peptide)
peptide: Ac-[αAllylPro]D[tBuAla][B5(27)]DDA[Nva(5-morpholino)]FL[PyrS2][3Thi][Bta]Q-NH2
modifications: staple 1-4, 4-11
B28: I-1489 (peptide)
peptide: Ac-[αAllylPro]D[tBuAla][B5(3)]DD[Phe(4-(3-Py))]AFL[PyrS2″]F[Bta]Q-NH2
modifications: staple 1-4, 4-11
B29: I-1494 (peptide)
peptide: Ac-[αAllylPro]D[tBuAla][B5(27)]DDAAFL[PyrS2][3Thi][Bta]T-NH2
modifications: staple 1-4, 4-11
B30: I-1496 (peptide)
peptide: Ac-[αAllylPro]D[tBuAla][B5(27)]DDAAFL[PyrS2][3Thi][Bta]F-NH2
modifications: staple 1-4, 4-11
B31: I-1497 (peptide)
peptide: Ac-[αAllylPro]D[tBuAla][B5(27)]DDAAFL[PyrS2][3Thi][Bta]W-NH2
modifications: staple 1-4, 4-11
B32: I-1485 (peptide)
peptide: Ac-[αAllylPro]D[tBuAla][B5(3)]DDAAF[Nva(5-morpholino)][PyrS2″][3Thi][Bta]Q-NH2
modifications: staple 1-4, 4-11
B33: I-1493 (peptide)
peptide: Ac-[αAllylPro]D[tBuAla][B5(27)]DDAAFL[PyrS2][3Thi][Bta]S-NH2
modifications: staple 1-4, 4-11
B34: I-1488 (peptide)
peptide: Ac-[αAllylPro]D[tBuAla][B5(3)]DDAAF[MePpzAsn][PyrS2″][3Thi][Bta]Q-NH2
modifications: staple 1-4, 4-11
B35: I-1495 (peptide)
peptide: Ac-[αAllylPro]D[tBuAla][B5(27)]DDAAFL[PyrS2][3Thi][Bta]V-NH2
modifications: staple 1-4, 4-11
B36: I-1500 (peptide)
peptide: Ac-[αAllylPro]D[tBuAla][B5(27)]DDAAFL[PyrS2][3Thi][Bta][dQ]-NH2
modifications: staple 1-4, 4-11

target: T1, B-cat-Halo (beta-catenin HaloTag fusion …); assay: cell-based or functional assay

Binder	NanoBRET Abs IC50
B1	> 20 µM
B2	16.7 µM
B3	9 µM
B4	> 20 µM
B5	> 20 µM
B6	27 µM
B7	> 20 µM
B8	> 20 µM
B9	27.2 µM
B10	11.8 µM
B11	> 20 µM
B12	> 20 µM
B13	17.7 µM
B14	> 20 µM
B15	8.6 µM
B16	> 20 µM
B17	24.3 µM

target: T2, B-cat-Halo (beta-catenin HaloTag …); assay: cell-based or functional assay

Binder	NanoBRET Abs IC50
B18	13.7 µM
B19	48.6 µM
B20	20.9 µM

target: T3, B-cat-Halo (beta-catenin HaloTag fusion …); assay: cell-based or functional assay

Binder	NanoBRET Abs IC50
B21	6.4 µM
B22	17.9 µM
B23	> 20 µM
B24	7.3 µM
B25	> 20 µM
B26	21.5 µM
B27	> 20 µM
B28	9.2 µM
B29	14.7 µM
B30	9.4 µM
B31	11.4 µM
B32	25.8 µM
B33	4.9 µM
B34	30.3 µM
B35	23.9 µM
B36	4.7 µM
